Reference: patent publication US8569242B2, “Method of treating degenerative disorders of the nervous system” (The Regents of the University of California, priority 2005, dated 2013)
Entries after “also recorded” stand apart in the source; their conditions may differ.

Biological target: T1, fibrin (Mus musculus, UniProt E9PV24+Q8K0E8+Q8VCM7)
T1 construct: from tissue; host or cells: citrated mouse plasma, diluted tenfold
T1 sequence (Q8VCM7 26-436): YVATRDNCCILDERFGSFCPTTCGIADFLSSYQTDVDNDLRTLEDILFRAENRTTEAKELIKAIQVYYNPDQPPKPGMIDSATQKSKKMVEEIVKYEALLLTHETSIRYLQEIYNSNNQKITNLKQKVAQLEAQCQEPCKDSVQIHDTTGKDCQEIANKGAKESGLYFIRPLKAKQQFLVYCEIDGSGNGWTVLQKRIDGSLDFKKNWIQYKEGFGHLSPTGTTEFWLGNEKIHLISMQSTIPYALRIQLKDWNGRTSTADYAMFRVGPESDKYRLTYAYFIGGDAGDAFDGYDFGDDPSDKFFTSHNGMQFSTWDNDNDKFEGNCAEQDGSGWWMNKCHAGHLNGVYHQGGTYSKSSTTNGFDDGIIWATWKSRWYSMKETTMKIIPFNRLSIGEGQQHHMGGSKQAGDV
T1 sequence (E9PV24 37-789 limits assumed): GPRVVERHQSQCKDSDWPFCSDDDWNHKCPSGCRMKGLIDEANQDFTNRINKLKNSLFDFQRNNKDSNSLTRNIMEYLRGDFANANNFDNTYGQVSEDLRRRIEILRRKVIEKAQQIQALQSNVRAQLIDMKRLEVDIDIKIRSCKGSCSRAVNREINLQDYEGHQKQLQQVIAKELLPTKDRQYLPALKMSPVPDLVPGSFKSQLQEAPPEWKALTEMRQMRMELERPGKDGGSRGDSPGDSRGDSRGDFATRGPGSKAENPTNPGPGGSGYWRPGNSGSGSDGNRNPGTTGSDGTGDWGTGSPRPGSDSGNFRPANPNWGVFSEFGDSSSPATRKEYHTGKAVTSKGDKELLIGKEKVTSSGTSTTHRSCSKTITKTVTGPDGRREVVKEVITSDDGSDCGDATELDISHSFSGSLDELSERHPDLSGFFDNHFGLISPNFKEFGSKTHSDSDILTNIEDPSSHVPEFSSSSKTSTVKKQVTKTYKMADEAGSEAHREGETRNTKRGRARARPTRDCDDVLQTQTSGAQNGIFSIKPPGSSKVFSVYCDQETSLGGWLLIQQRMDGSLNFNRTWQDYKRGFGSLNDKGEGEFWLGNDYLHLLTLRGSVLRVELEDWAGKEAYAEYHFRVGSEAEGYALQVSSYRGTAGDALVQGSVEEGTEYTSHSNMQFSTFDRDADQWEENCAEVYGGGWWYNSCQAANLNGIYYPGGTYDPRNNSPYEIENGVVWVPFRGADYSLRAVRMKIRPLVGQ
T1 sequence (Q8K0E8 35-481 limits assumed): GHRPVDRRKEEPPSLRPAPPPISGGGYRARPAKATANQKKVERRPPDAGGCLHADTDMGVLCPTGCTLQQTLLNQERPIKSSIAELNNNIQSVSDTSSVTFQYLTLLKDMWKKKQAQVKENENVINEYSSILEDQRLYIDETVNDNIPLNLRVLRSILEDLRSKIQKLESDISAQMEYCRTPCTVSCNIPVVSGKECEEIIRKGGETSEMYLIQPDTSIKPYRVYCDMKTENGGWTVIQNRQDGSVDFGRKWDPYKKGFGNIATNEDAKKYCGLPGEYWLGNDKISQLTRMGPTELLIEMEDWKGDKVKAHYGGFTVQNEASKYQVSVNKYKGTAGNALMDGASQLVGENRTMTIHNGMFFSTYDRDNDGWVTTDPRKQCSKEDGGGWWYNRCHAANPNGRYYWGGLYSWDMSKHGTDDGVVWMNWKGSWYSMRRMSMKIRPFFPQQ
Assay: In vitro fibrin polymerization turbidity assay in plasma
Type: biochemical
Details: citrate plasma, bovine thrombin 0.2 U/ml, OD350
Protocol: Hematological Analyses. Citrated plasma was prepared from mice administered intranasally 30 μg or 90 μg of γ^377-395 peptide or saline control daily for seven days. Plasma clotting times were measured by combining 10 μl of citrated plasma with 10 μl of 2 U/ml bovine thrombin (Enzyme Research Laboratories, South Bend, Ind., USA) and 40 mM. CaCl2 in a weigh boatfloating in a 37° C. water bath. Time to clot was determined by mixing with a toothpick. Plasma thrombin times were established as described previously (15). Fibrin polymerization was evaluated by standard turbidity assays using plasma. Briefly, citrate plasma (diluted tenfold in 20 mM HEPES, pH 7.4, containing 0.15 M NaCl and 5 mM-amino caproic acid) was combined with bovine thrombin (final concentration 0.2 U/ml; Enzyme Research Laboratories, South Bend, Ind., USA), and Ca^2+ (10 mM), and OD350 measurements were taken every 30 seconds.

tyr-ser-met-lys-lys-thr-thr-met-lys-ile-ile-pro-phe-asn-arg-leu-thr-ile-gly (YSMKKTTMKIIPFNRLTIG) (listed as Homo sapiens) [γ^377-395 peptide]
effect on fibrin polymerization: did not alter; also recorded: had no effect
